{"source": "patent US20240366756A1", "about": "“COMBINATIONS AND USES THEREOF” (Incyte Corporation, priority 2011, published 2024)", "molecules": {"B1": {"name": "RefmAb33: antibody specific for RSV, used as isotype control, shares the same Fc region as MOR00208 (SEQ ID NO: 8, 9) (antibody)", "heavy": "QVTLRESGPALVKPTQTLTLTCTFSGFSLSTAGMSVGWIRQPPGKALEWLADIWWDDKKHYNPSLKDRLTISKDTSKNQVVLKVTNMDPADTATYYCARDMIFNFYFDVWGQGTTVTVSSASTKGPSVFPLAPSSKSTSGGTAALGCLVKDYFPEPVTVSWNSGALTSGVHTFPAVLQSSGLYSLSSVVTVPSSSLGTQTYICNVNHKPSNTKVDKKVEPKSCDKTHTCPPCPAPELLGGPDVFLFPPKPKDTLMISRTPEVTCVVVDVSHEDPEVQFNWYVDGVEVHNAKTKPREEQFNSTFRVVSVLTVVHQDWLNGKEYKCKVSNKALPAPEEKTISKTKGQPREPQVYTLPPSREEMTKNQVSLTCLVKGFYPSDIAVEWESNGQPENNYKTTPPMLDSDGSFFLYSKLTVDKSRWQQGNVFSCSVMHEALHNHYTQKSLSLSPGK", "light": "DIQMTQSPSTLSASVGDRVTITCSASSRVGYMHWYQQKPGKAPKLLIYDTSKLASGVPSRFSGSGSGTEFTLTISSLQPDDFATYYCFQGSGYPFTFGGGTKVEIKRTVAAPSVFIFPPSDEQLKSGTASVVCLLNNFYPREAKVQWKVDNALQSGNSQESVTEQDSKDSTYSLSSTLTLSKADYEKHKVYACEVTHQGLSSPVTKSFNRGEC", "modifications": "Heavy chain RefMab33; Light chain RefMab33"}}, "tested_on": "RAMOS human Burkitt's lymphoma cells", "experiment": "Human Non-Hodgkin RAMOS tumor in SCID mice, survival model", "type": "in vivo", "settings": "for Median Survival (Days Post-Inoculation): 3 mg/kg i.v., treatment related deaths excluded; for Survival, pairwise comparison (Holm-Sidak) vs. Group 2: Group 2 = Bendamustine (13 mg/kg); for Survival, pairwise comparison (Holm-Sidak) vs. Group 3: Group 3 = Bendamustine (16 mg/kg); for Survival, pairwise comparison (Holm-Sidak) vs. Group 5: Group 5 = MOR00208/Bendamustine (3/13 mg/kg); for Survival, pairwise comparison (Holm-Sidak) vs. Group 6: Group 6 = MOR00208/Bendamustine (3/16 mg/kg); for Survival, pairwise comparison (Holm-Sidak) vs. Group 1: Group 1 = MOR00208 (3 mg/kg)", "experimental": "Cyclophosphamide (Baxter, Lot. No. 1A548C); Vehicle Control: 0.9% sodium chloride, 25 mg/ml mannitol, pH 6.5-6.8 (adjusted with 0.01 M NaOH); SCID Mice (University of Adelaide, Waite Campus, Urrbaraie, SA, Australia, Strain C.B.-17-Igh-1^b-Prkdc^scid); RAMOS human Burkitt's lymphoma cells (ATCC number CRL-1596); Ref_mAb_33_IgG_Xen (10 mg/mL in PBS, referred to as Ref_mAb_33); Bendamustine (Mundipharma, Lot No. 83889).\nSCID mice were pre-treated with Cyclophosphamide (75 mg/kg, i.p., twice daily) for two days prior to RAMOS cell inoculation (Day −2 and −1). On the day of inoculation (Day 0), the mice were separated into seven groups of ten mice each, and inoculated with 1×10^6 RAMOS cells each intravenously into the tail vein. The planned dosing regimen for each group is shown in Table 5 and commenced on Day 3. The study duration was 60 days.\nFrom the raw data shown in Table 6, both the median survival in days and median increase in lifespan were calculated. All treatment related deaths were excluded in the calculations.\nMedian % Increased Lifespan (ILS) is calculated as follows: […]\nThe classification of the MOR000208/Bendamustine combination therapy (combo) effect was evaluated by comparing the ILS of the combination with the added ILS of the respective monotherapies:\nSynergy/Potentiation*: ILSCombo>ILSMOR00208 3 mg/kg+ILSBendamustine. Synergistic effects are classified as potentiation if at least one of the monotherapies has no effect. Additivity: ILSCombo=ILSMOR00208 3 mg/kg+ILSBendamustine. Antagonism: ILSCombo<ILSMOR00208 3 mg/kg+ILSBendamustine.\nIn addition to an analysis of the data for purposes of identifying synergy, the following statistical analysis was also completed. Statistical analyses were carried out using the median values. Any animal that died unexpectedly or was culled prior to Day 17 of the study in the Test Article treatment groups was excluded from survival analysis calculation. The death/culling of these animals was attributed to compound toxicity rather than disease progression as they occurred well in advance of the first deaths in the Vehicle Control animals. A survival curve was created using the product limit of Kaplan and Meier, and survival curves compared using the log-rank (Mantel-Cox) test. Where significant differences were found, All Pairwise Multiple Comparison (Holm-Sidak Test) was performed. Comparison was done between all groups. In addition the comparison of the following groups were summarised in separate figures for each test article: Vehicle Control/Ref_mAb (group 10) against Bendamustine groups (Groups 2, 3 and 4) and Vehicle Control/Ref_mAb (group 10) against Combination groups (Groups 5 and 6) or respective MOR00208 monotherapy group (group 1). A p value of less than 0.05 was considered significant.", "key": {"[1]": {"settings": "Table 8, listed as Bendamustine = 13 mg/kg"}, "[2]": {"settings": "Table 9, listed as combination = 3/13 mg/kg"}, "[3]": {"settings": "Table 10, listed as combination = 3/16 mg/kg"}, "[4]": {"settings": "untitled repeat of Table 8, listed as Bendamustine = 13 mg/kg"}}, "note": "Marks after values point to notes of the source that are not given here.", "data": [{"molecule": "MOR00208: anti-CD19 antibody; variable domains shown in FIG. 3, heavy and light chain Fc regions in FIG. 4", "values": [{"measurement": "Median Survival (Days Post-Inoculation)", "result": "32^a Days Post-Inoculation"}, {"measurement": "Median % Increase in Lifespan (ILS)", "setting": "3 mg/kg, vs. vehicle control/Ref_mAb_33", "result": 25.5, "unit": "%"}, {"measurement": "Survival, pairwise comparison (Holm-Sidak) vs. Group 2", "setting": "Table 8", "result": "***Yes (***Yes: There is a statistically significant difference (p < 0.001).)"}, {"measurement": "Survival, pairwise comparison (Holm-Sidak) vs. Group 3", "setting": "[1]", "result": "***Yes (***Yes: There is a statistically significant difference (p < 0.001).)"}, {"measurement": "Survival, pairwise comparison (Holm-Sidak) vs. Group 2", "setting": "[2]", "result": "***Yes (***Yes: There is a statistically significant difference (p < 0.001).)"}, {"measurement": "Survival, pairwise comparison (Holm-Sidak) vs. Group 5", "setting": "Table 9", "result": "*Yes (*Yes: There is a statistically significant difference (p < 0.05).)"}, {"measurement": "Survival, pairwise comparison (Holm-Sidak) vs. Group 3", "setting": "[3]", "result": "***Yes (***Yes: There is a statistically significant difference (p < 0.001).)"}, {"measurement": "Survival, pairwise comparison (Holm-Sidak) vs. Group 6", "setting": "Table 10", "result": "***Yes (***Yes: There is a statistically significant difference (p < 0.001).)"}, {"measurement": "Survival, pairwise comparison (Holm-Sidak) vs. Group 2", "setting": "untitled repeat of Table 8", "result": "***Yes (***Yes: There is a statistically significant difference (p < 0.001).)"}, {"measurement": "Survival, pairwise comparison (Holm-Sidak) vs. Group 3", "setting": "[4]", "result": "***Yes (***Yes: There is a statistically significant difference (p < 0.001).)"}]}, {"molecule": "B1", "values": [{"measurement": "Median Survival (Days Post-Inoculation)", "result": 25.5, "unit": "Days Post-Inoculation"}, {"measurement": "Survival, pairwise comparison (Holm-Sidak) vs. Group 1", "setting": "Table 8", "result": "***Yes (***Yes: There is a statistically significant difference (p < 0.001).)"}, {"measurement": "Survival, pairwise comparison (Holm-Sidak) vs. Group 2", "setting": "Table 8", "result": "*Yes (*Yes: There is a statistically significant difference (p < 0.05).)"}, {"measurement": "Survival, pairwise comparison (Holm-Sidak) vs. Group 3", "setting": "[1]", "result": "No (No: There is no statistically significant difference (p ≥ 0.05).)"}, {"measurement": "Survival, pairwise comparison (Holm-Sidak) vs. Group 1", "setting": "Table 9", "result": "***Yes (***Yes: There is a statistically significant difference (p < 0.001).)"}, {"measurement": "Survival, pairwise comparison (Holm-Sidak) vs. Group 2", "setting": "[2]", "result": "*Yes (*Yes: There is a statistically significant difference (p < 0.05).)"}, {"measurement": "Survival, pairwise comparison (Holm-Sidak) vs. Group 5", "setting": "Table 9", "result": "***Yes (***Yes: There is a statistically significant difference (p < 0.001).)"}, {"measurement": "Survival, pairwise comparison (Holm-Sidak) vs. Group 1", "setting": "Table 10", "result": "***Yes (***Yes: There is a statistically significant difference (p < 0.001).)"}, {"measurement": "Survival, pairwise comparison (Holm-Sidak) vs. Group 3", "setting": "[3]", "result": "No (No: There is no statistically significant difference (p ≥ 0.05).)"}, {"measurement": "Survival, pairwise comparison (Holm-Sidak) vs. Group 6", "setting": "Table 10", "result": "***Yes (***Yes: There is a statistically significant difference (p < 0.001).)"}, {"measurement": "Survival, pairwise comparison (Holm-Sidak) vs. Group 1", "setting": "untitled repeat of Table 8", "result": "***Yes (***Yes: There is a statistically significant difference (p < 0.001).)"}, {"measurement": "Survival, pairwise comparison (Holm-Sidak) vs. Group 2", "setting": "untitled repeat of Table 8", "result": "*Yes (*Yes: There is a statistically significant difference (p < 0.05).)"}, {"measurement": "Survival, pairwise comparison (Holm-Sidak) vs. Group 3", "setting": "[4]", "result": "No (No: There is no statistically significant difference (p ≥ 0.05).)"}]}]}
